Assay: yeast display, Sf9 membrane polyspecificity reagent, FACS + sequencing; frameworks hold sequencing errors
Summary of the method: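 A synthetic nanobody library was expressed on Saccharomyces cerevisiae BJ5465 by galactose induction for 36–48 hours. The library was stained for 1 hour at 4 °C with 10% biotinylated, detergent-solubilized Sf9 membrane reagent and enriched with streptavidin microbeads before FACS. Low and high (top ~1%) gates were set on anti-HA fluorescence for expression and streptavidin fluorescence for reagent binding, and each polyreactivity label reflects the gate of origin.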

| Sequence | polyreactivity (PSR sort gate) |
| --- | --- |
| QVQLVESGGGLVQAGGSLRLSCAASGSTFYYYAMGWYRQAPGKERELVAAITKSGGSTYYADSVKGRFTISRDNAKNTVYLQMNSLKPEDTAVYYCAAYLRSGYKFDYWGQGTQVTVSS | low polyreactivity |
| QDQLVESGGGLVQAGGSLRLSCAASGSTFLTYAMGWYRQAPGKERELVAAISKTGASTYYADSVKGRFTISRDNAKNTVYLQMNSLKPEDTAVYDCAAGRYTSYSPRYYYWGQGTQVTVSS | high polyreactivity |
| QVQLVESGGGLVQAGGSLRLSCAASGRTFNIYAMGWYRQEPGKERELVAAITNNGGRTYYADSVKGRFTISRDNAKNTVYLQMNSLKPEDTAVYYCAAASPWRYGFEYWGQGTQVTVSS | high polyreactivity |
| QVQLVESGGGLVQAGGSLRLSCAASGFTFVYNALGWYRQAPGKERELVAAISGSGGSTYYADSVKGRFTISRDNAKNTVYLQMNSLKPEDTSVYYCNAVPSWRWEYDHWGQGTQVTVSS | high polyreactivity |
| QVQLVESGGGLVQAGGSLRLSCAASGGTFRYNAMGWYRQAPGKERELVAAISSSGGSTYYADSVKGRFTISRDNAKNTVYLQMNSLKPEDTAVYYCAAKRRRYVELDYWGQVTQVTVSS | high polyreactivity |
| QVQLVESGGGLVQAGGSLRLSCAASGYIFFNAMGWYRQAPGKERELVAAITYPVGSTHYADSVKGRFTISRDNAKNTVYLQMNSLKPEDTAVYYCAAEWYQYLRWYWTYEYYWGQGTQVTVSS | low polyreactivity |
| QVQLVESGGGLVQAGGSLRLSCAASGRTCWYKAMGWYRQAPGKERELVAPITSGGRTKYADSVKGRFTISRDNAKNTVYLQMNSLKPEDTAVYYCNTYNRRSGTLPKPYDYWGQGTQVTVSS | high polyreactivity |
| QVQLVESGGGLVQAGGSLRLSCAASGRIYDYYAMGWYRQAPGKERELVAAISTSGGSTYYADSVKGRFTISRDHAKNTVYLQMKSLKPEDTAVYYCAKDITVTYPGLDYDYWGQVTQVTVSS | low polyreactivity |
| QVQLVDSGGGLVQAGGSLRLSCAASGITFYYYAMGWYRQAPGKERELVAAISSRGGSTYYADSVKGRFRISRDNAKNTVYLQMNSLNPEDTAVYYCAAGRVGAWTFDYWGEGTQVTVSS | high polyreactivity |
| QVQLVESGGGLVQAGGSLRLSCAASGSIFWSYAMGWYRQAPGKERELVAAITRSGGSTYYADSVKGRFTISRDNAKNTVYLQINSLKPEDTAVDYCNAATPYSWGYRRGYWGQGTQVTVSS | high polyreactivity |
| QVQLVESGGGLVQAGGSLRISCAASGITFNVNAMGWSRQAPGKERELVARITTSGGSTSYADSVKGRFTISRDNAKNTVYLQMNSLKPEDTAVYYCAADRARYYSEYDYWGQGTQVTVSS | low polyreactivity |
| QVQLLESGGGLVQAGGSLRLSCASSGRTFRQYVMVWYRQAPGKESELVAAITYSGGSTYFADSVKGRFTISRDNAKYSVYLQMNSLTPEDTAVYYCAARNGYCVGYWGQGTQVTVSS | high polyreactivity |
| QVQLVDSGGGLVQAGGSLRISCAATGSIFGPNAMGWNRQPPGKERELVAAISRRGGTTYYADSVKGRFTISRDNSKNTFYLQMNSLKPEDTAVYYCATVLYKAYNDYGYWGQGTQVTVSS | high polyreactivity |
| QVHLVESGGGLVQAGGSLRLSCAASGSTLYWYAMGWYRQAPGKERELVARITVSGGSTSYADSVKGRFTISRDNAKNTVYLQMNSLKPEDTAVYYCAARRYWTGYYYWGQGTQVTVSS | high polyreactivity |
| QVQLVESGGGLVQAGGSLRLSCAASGRIFRGYAMGWYRQAPGKERELVAAINGGDSTYADSVKGRFTISRDNAKNTVFLQMNSLIPEDTAVYYCAAAHYFLGPQGASFYYWGQGTQVTVSS | low polyreactivity |
| QVQLVESGGGLVQAGCSLRLSCAASGFIYPVNAMGWYRQAPGKERELVAAITYSTGSTYYADSVKGRFTISRDNAKNTVYLQMNSLKPEDTAVYYCAADVPPGEVVTNDYWGQGTQVTVSS | low polyreactivity |
| QVQLVESGGGLVQAGGSLRLSCAASGRTVLHYDMGWYRQAPGKERELVASISSGVSTHYADSVKGRFTISRDNAKNTVYLQMNSLQPEDTAVYYCAARPYRFGRYGYDYDYWGQGTQVTVSS | high polyreactivity |
| QVQLVESGGGLVQAGGSLRLTCAASGRTLRNYAMGWYRQPPGKERELVATITYRGGSTYYADSVKGRFTISRDNAKNTVYLKRNCLKPEDTAVYYCAARTSSYSFQYAYNYWGQGTQVTVSS | high polyreactivity |
| QVQLVESGGGLVQAVGSLRLSCAASGFTFQHYAMGWYRQAPGNERELVAVISFSGGRTYYADSVKGRFTISRDNAKNTVYLQMNSLKPEDTAVYYCAAVFWDDYGKYYYWGLGTQVTVSS | high polyreactivity |
| QVQHVESGGGLVQAGGSLRLSCAASGSTFSYYAMGWSRQAPGKERELVAAISGSGASTYYADSVKGRFTISRDNAKNTVYLQMNSLKPEDTAVYYCAKYYVREHYDYWGQGTQVTVSS | low polyreactivity |
| QVQLVESGGGLDQAGVRLRLSCAASGRIVSSYAMGWYRQAPGKERELVAAIRRGGGSTSYADSVKGRFTISRDNAKKTVYLQMNSLKPEDTAVYYCAADSPRGQVHYIGGYWGQGTQVTVSS | low polyreactivity |

| Sequence | polyreactivity (PSR sort gate) |
| --- | --- |
| QVQLVESGGGLVQAGGSLRLSCAASGSTFYNYAMGWSRQAPGKERELVASITWNGGSTYYADSVKGRFTISRDNAKNTVYLQMNSLKPEDTAVYYCAADWTWTYPYDYWGQGTQVTVSS | low polyreactivity |
| QVQLVESGGGLVQAGGSLRLSCAASGFTFGRYAMGWYRQAPGKERELVATITRTGSTNYADSVKGRFTISRDNAKNTVYLQMNSLKPEDTAVYYCNAGPDRRVSYYRLLDHWGQGTQVTASS | low polyreactivity |
| QVQLVESGGGLVQAGGSLRLSCAASGSTFAFNTKGWYRQAPGKERELVAGISSNGGRTYYADSVKGRFTISRDNAKNTVYLQMNSLKPEDTAVYYCNALRRYVSVRPTKSDDWGQGTQVTVSS | high polyreactivity |
| QFQLVESGGGLVQAGGSLRLSCAASASTYYYYVMGWSIQAPVKEREVVAAITRSTGSTYYADSVKGRFTISRDNAKNTVYLNKNSLKPEETSVYYCAAEGPKWYYSGAFDYWGQGSQVTVSS | low polyreactivity |
| QVQLVESGGGLVQAGGSLRLICAASGSTFDGYAMGWYRQAPGKERELVAAISKNGVRTYYADSVKGRFTISRDNAKNTVYLLMNSLKPEDTAVYYCAKDIIKYDYDYWGQGTQVTVSS | low polyreactivity |
| QVQLEESGGGLVQAGGSLRLSCAASGSTFVYNPMGWYRQAPGKETELVAVITYRGGRTYSADSVKGRFTISRDYAKNSVYLQMNSLKPEDTAVYYCAKRVYGSKVRGYDYWGQGTQVTVSS | high polyreactivity |
| QVQLVESGGGLVQAGGSLRLSCAASGRTFLKNAMGWYRQAPGKERELVAAITSGGSTNYADSVKGRFTISRDNAKNTVYLQMNSLKPEDTAVYYCNAPSYWYYPVLGSFLTFDYWGQGTQVTVSS | low polyreactivity |
| QVQLVESGGGLVQAGGSLRLSCAASGSIFYYNDRGWSRQAPGKDRELVATIRSGGNTNYADSVKGRFTISRDIAKNTVYLQMNSLKPEDSAVYYCTARGAYHGYRYDSWGQGTQVTVSS | low polyreactivity |
| QVQLVESGGGLVQAGGSLRLSCAASGSIFSTNAMGWYRQAPGKERELVAVITGIGGITYYADSVKGRFTISRDIAKNTVYLQMNSLIPEDTAVYYCAVGYWDSRYRYDLPNSDYWGQGTEVTVSS | low polyreactivity |
| QDQLVESGGGLVQAGGSLRLSCAASGIIFYVYAMGWYRLAPGKERELVAAISRSGGRTYYADSVKGRFTISRDNAKNTVYFQMNSLKPEDTAVYYCAADAYRTPTHYYWGQGTQVTVSS | high polyreactivity |
| QVQVVDSGGGLVQAGGSLRLSCAASGRTFIGNAMGWYRQAPGKERELVATITTSAGTTYYADSVKGRITISRDNAKITVYVQMLSLKPEDTAVYYCAADASQSEGDYWGQGTQVTVAS | high polyreactivity |
| QVQLVESGGGLVQAGGSLRLSCAASGRIFGYNAMGWYRQAPGKERELVAAIRGGGSTYYADSVKGRFTISRDNAKNSVYLQMYSLKPEDSAFYFCAATSYTYVLSPYRGDYWGQGTQVNVSS | high polyreactivity |
| QVQLVESGGGLVQAGGSLRLSCAASGRTSGFNTMGWYRQAPGKERELVAAISFSGGSTYYADSVKGRFTISRDYSKNTVYLQMNSLKPEDTAVYYCTALYRYLYRSGDYWGQGTQVTVSS | low polyreactivity |
| QVQLVESGGGLVQAGGSRSLSCAASGFTFQGNVMGWYTQAPGKERELVAAISGGGGRTYYADYVKGRFTISRDNAKYTVYLQMNSLIPEDTAVYYCIVRLLGSNRAGVRCDYWGQGTQVTVSS | high polyreactivity |
| QVQLVESVGGLVQAGGRLRLSCAASGSTFAFNAMGWSRQAPGKEREFVAVISYRTDNTYYADSVKGRFTISRDNAKNTVYLQMNSLKPEDTAVYYCAAASSYSKKPYYSYGYWGQGTQVTVSS | high polyreactivity |
| QVQLVESGGGLVQAGGSLRLSCAASGSIIGGNAMGWYRQAPGKERELVAAIRSGGRTNYADSVKGRFTISRDNAKNTVYLQMNSLKPEDTAVYYCAADYYLGGGYWGQGTQVTVSS | low polyreactivity |
| QVQLVESGGGLVQAGGSLRLSCAASGRTFDGYAMGWYRQAPGKERELVASINGGGSTNYADSVKGRFTISRDNAKNTVYLQMNSLKPEDTAVYYCAAESKGTWHYLYTSPHYYWGQGTQVTVSS | low polyreactivity |
| QVQLVESGGGLVQAGGSLRLSCAASGFIFPENDMGWYRQAPGKERELVATISGDTSTNYADSVKGRFTISRDNAKHTVYLQMNSLKPEDTAVYYCNRKLKGRKSHKLDYDYWGQGTQVTVSS | low polyreactivity |
| QVQLVDSGGGLVQAGGSLRLSCAASGSIFYPYAMGWYRQAPGKEREFVAGITTRGGSTYYADSVKGRFTISRDNAKNTVYLQMNSLKPEDTAVYYCAAYSSVWPNFGYWGQGTQVTVSS | high polyreactivity |
| QLQLVESGGGLVQAGGSLRITCAASGSTFLTYSMGWYRQAPGKESELVAGISYSTGSTYYADSVKGRFTISRDNAKYTVYLQMNSLKPEDTAVYYCAADEWDCLWYYYYFNYEYWGQGTQVTVSS | low polyreactivity |
